Changes are numbered by the printed parent chain. Numbers in names are those of the source.
B1: C2 (antibody, V domains shown)
VH: QVQLQQSGAELVRPGASVTLSCKAAGYTFADYEMHWVRQTPVLGLEWIGAIDSEPGRTVYNQKFKSKAILTADKSSSTAYMELRSLTSDDSAVYYCTRRGAFYTNYDFFDYWGQGTTLTVSS
VL: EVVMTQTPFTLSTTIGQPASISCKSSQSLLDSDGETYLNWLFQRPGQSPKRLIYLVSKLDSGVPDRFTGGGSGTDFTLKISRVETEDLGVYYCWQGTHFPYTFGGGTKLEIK
notes: first hybridoma campaign
B2: B1 (hIgG4 isotype) (antibody, V domains shown)
VH: DVKLVESGGGLVKLGGSLKLSCAASGFTFSSYYMSWVRQTPEKRLEWVAAINSNGDRSYYPDTVKGRFTISRDNAKNTLYLQMSSLKSEDTAFYYCASHGNYYGSPWFAYWGQGTLVTVSA
VL: ETTVTQSPASLSVATGEKVTIRCKTSTDIDDDMNWYQQKPGEPPKLLISEGNTLRPGVPSRFSSSGYGTDFVFTIENTLSEDVADYYCLQNDHMPLTFGGGTKLEIK
B3: C7 (antibody, V domains shown)
VH: QVQLQQSGAELARPGTSVKLSCKASGYIFTDYAISWVKQRTGQGLQWIGEIYPGSDNAYYNENFKGKATLTADKSSNTAYMELRSLTSEDSAVYFCAKWAGSLFDFWGQGTALTVSS
VL: DIVMTQSQKFMSTSVGDRVSVTCKASRNVGFNVAWYQQNPGQSPKALIYSASYRYSGVPDRFTGSGSGTDFTLTISDVQSEDLAEYFCHQYNSYPYTFGGGTKLEIR
notes: first hybridoma campaign
B4: E12 (antibody, V domains shown)
VH: QVQLQQSGAELAKPGASVKLSCKASGYTFTSYWIHWVKQRPGQGLEWIGYINPSSGDTEYNQKFKDKATLTADKSSNTAYMQLSSLTYEDSAVYYCARSAPDDGYYDYAMDYWGQGTSVTVSS
VL: B3 VL with Q8R, R27Q, F31S, N39K, A46G, I48T, D77N, H89Q, R107K
notes: B-cell cloning campaign (mice)
B5: B3 (hIgG4 isotype) (antibody, V domains shown)
VH: EVKLVESGGGLVKPGGSLKLSCTASGFTFSNYAMSWVRQTPEKRLEWVASISGGGSTYYPDSVKGRFTIAIDYARNILYLQMSSLRSEDTAIYFCTRGVSYGDYAMDYWGQGTSVTVSS
VL: ETTVTQSPASLSMAIGEKVTIRCVTSTDIDDDMNWYQQKPGGPPKLLISEGNTLRPGVPSRFSSSGYGSDFVFTIEDMLSEDVADYYCLQSDNLPLTFGAGTKVELK
B6: hPA-002 (hIgG4 isotype) (antibody, V domains shown)
VH: QVTLQESGPGILQPSQTLSLTCSFSGFSLSTFGMGVGWIRQPSGKGLEWLAHIWWDDDKYYNPALKSRLTISKDTSKNQVFLKIASVDTADIATYYCARVEDYGNPFDYWGQGTTL
VL: DIQMNQSPSSLSASLGDTITITCHASQNIHVWLNWYQQKPGNIPKLLIYKASNLHTGVPSRFSGSGSGTGFTVTISSLQPEDIATYYCQQGQSYPLTFGAGTKLELK
B7: E13 (antibody, V domains shown)
VH: QVQLQQPGAELVMPGASVKLSCKASGYTFTRYWIHWVRQRPGQGLEWIGEIDPSDSYTNHNQKFKDKATLTVDKSSSTAYMQLSSLTSEDSAVYFCANSNYDYWGQGTTLTVSS
VL: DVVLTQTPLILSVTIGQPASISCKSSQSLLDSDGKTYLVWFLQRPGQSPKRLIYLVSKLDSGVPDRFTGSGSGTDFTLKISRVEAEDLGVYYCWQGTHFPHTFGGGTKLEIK
notes: first hybridoma campaign
B8: C8 (antibody, V domains shown)
VH: EVQLQQSGADLVKSGASVKLSCTASGFNIKDYYIHWVKQRTAQGLEWIGRITPEDGETEYAPTFQVKATITADTSSNTAYLQLNSLTSEDTAVYYCSLGDYDVSPFAYWGQGTLVTVSA
VL: DIQMTQSPASQSASLGESVTITCLASQTIGTWLAWYQQKPGKSPQLLIYAATSLADGVPSRFSGSGSGTKFSFKISSLQAEDFVSYYCQQLYSTPYTFGGGTKLEIK
notes: first hybridoma campaign
B9: D5 (antibody, V domains shown)
VH: EVKLDETGGGLVQPGRPMKLSCVASGFTFSDYWMNWVRQSPEKGLEWVAQIRNKLYNYETYYSDSVKGRFTISRDDSKSSVYLQMNNLRAEDMGIYYCTVGLAMDYWGQGTSVTVSS
VL: DIQMTQSSSSFSVSLGDRVTITCKASEDIYNRLAWYQQKPGNAPRLLISGATSLETGVPSRFSGSGSGKEYTLNITSLQTEDVATYYCQQYWSTPTFGGGTKLEIK
notes: second hybridoma campaign
B10: C1 (antibody, V domains shown)
VH: QIQLVQSGPELKKPGETVKISCKASGYTFTTYGMSWVKQAPGKGLKWMGWINTYSGVPTYADDFQGRFAFSLETSASTAYLQINNLKNEDTAPYFCVRDGYAAPYWGQGTLVTVSA
VL: NIMMTQSPSSLAVSAGEKVTMRCKSSQSVLYSSNQKNYLAWYQQKPGQSPKLLIYWASTRESGVPDRFTGSGSGTDFTLTISSVQAEDLAVYYCHQYLSSWTFGGGTKLEIK
notes: first hybridoma campaign
B11: A16 (hIgG4 isotype) (antibody, V domains shown)
VH: QVQLVQSGAEVKKPGSSVKVSCKASGYNFLNYDVNWVRQAPGQGLEWMGGIIPIFGTANYAQKFQGRVTITADESTSTAYMELSSLRSEDTAVYYCATGVGAGWFDPWGQGTLVTVSS
VL: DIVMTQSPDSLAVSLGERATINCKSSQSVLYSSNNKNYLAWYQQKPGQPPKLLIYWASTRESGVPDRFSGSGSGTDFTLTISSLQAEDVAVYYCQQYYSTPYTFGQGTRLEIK

Columns and labels:
[1] = molecular target: T1, human PILRA, G78 variant, ectopically expressed on 293 cells (human, UniProt Q9UKJ1 20-303); test: flow cytometry, MFI relative to 293 parental cells
T1 construct: the cells are labelled G78; also called hA G78 OE; hA
T1 sequence (Q9UKJ1 other isoform, or with tags, fused parts or gaps mutant): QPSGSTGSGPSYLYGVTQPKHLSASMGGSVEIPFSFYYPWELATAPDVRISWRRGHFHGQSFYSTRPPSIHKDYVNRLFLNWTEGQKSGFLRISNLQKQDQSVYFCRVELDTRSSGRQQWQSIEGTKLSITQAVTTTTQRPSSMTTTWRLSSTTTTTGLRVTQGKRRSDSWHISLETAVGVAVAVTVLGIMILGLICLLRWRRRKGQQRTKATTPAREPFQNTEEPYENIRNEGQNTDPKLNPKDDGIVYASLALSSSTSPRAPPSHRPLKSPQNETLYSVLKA
Protocol: (§1) Briefly, conditioned media containing antibodies were incubated with 293 cells for 30 min at 4° C., washed twice, and then detected with anti-mouse IgG Alexa 647.

[2] = molecular target: T2, human PILRB, ectopically expressed on 293 cells (human, UniProt Q9UKJ0 20-227); test: flow cytometry, MFI relative to 293 parental cells
T2 construct: also called hB
T2 sequence (Q9UKJ0 20-227): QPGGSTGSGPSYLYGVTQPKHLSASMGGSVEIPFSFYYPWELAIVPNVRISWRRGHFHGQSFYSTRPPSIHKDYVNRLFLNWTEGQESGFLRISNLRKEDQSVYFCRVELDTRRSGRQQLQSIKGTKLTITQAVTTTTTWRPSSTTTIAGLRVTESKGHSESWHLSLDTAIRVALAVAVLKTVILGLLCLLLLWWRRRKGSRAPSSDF
Protocol: as §1

[3] = molecular target: T3, cynomolgus PILRA, ectopically expressed on 293 cells (cynomolgus monkey); test: flow cytometry, MFI relative to 293 parental cells
T3 sequence (chain, as listed by the source): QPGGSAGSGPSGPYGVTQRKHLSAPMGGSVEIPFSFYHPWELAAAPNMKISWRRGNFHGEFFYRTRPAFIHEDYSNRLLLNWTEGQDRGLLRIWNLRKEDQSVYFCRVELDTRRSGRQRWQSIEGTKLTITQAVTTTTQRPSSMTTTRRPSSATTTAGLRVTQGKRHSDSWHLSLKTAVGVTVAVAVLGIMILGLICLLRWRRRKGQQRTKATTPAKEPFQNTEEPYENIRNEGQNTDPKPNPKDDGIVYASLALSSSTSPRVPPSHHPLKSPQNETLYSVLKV
Protocol: as §1

[4] = molecular target: T4, murine PILRA, ectopically expressed on 293 cells (murine, UniProt Q2YFS3 32-302); test: flow cytometry, MFI relative to 293 parental cells
T4 construct: also called mA
T4 sequence (Q2YFS3 32-302): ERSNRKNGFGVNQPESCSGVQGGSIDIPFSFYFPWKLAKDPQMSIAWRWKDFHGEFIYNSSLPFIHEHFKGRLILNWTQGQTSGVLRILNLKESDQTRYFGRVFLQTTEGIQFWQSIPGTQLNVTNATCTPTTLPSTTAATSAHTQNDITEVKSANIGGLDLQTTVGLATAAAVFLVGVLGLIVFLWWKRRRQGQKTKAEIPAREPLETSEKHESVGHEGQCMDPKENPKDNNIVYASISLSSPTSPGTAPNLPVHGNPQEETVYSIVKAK
Protocol: as §1

[5] = molecular target: T5, murine PILRB, ectopically expressed on 293 cells (murine, UniProt Q2YFS2 29-224); test: flow cytometry, MFI relative to 293 parental cells
T5 construct: whole, on cells; also called mB
T5 sequence (Q2YFS2 29-224): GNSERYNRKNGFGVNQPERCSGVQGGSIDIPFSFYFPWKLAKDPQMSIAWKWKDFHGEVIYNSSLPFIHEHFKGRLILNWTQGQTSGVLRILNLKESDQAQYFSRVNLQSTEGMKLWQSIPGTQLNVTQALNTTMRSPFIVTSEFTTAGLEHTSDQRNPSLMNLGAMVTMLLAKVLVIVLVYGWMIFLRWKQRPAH
Protocol: as §1

[6] = molecular target: T6, human PILRA, c-term His-Avi tag (human, UniProt Q9UKJ1 20-197, limits assumed); test: SPR (Biacore), antibody captured, PILRA as analyte
T6 construct: not shown: C-terminal His-Avi tag
T6 sequence (Q9UKJ1 20-197 limits assumed): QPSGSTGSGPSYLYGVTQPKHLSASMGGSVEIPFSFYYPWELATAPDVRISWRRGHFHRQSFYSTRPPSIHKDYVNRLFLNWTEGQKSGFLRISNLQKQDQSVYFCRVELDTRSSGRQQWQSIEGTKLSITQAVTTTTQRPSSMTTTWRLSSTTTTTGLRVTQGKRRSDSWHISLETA
Summary of the method: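 Antibodies were captured at 10 μg/ml on an anti-huFc or anti-msFc CM5 surface, and human PILRA was flowed at 33, 100 and 300 nM in HBSTE/0.5% BSA, pH 7.4. The surface was regenerated with 10 mM glycine-HCl, pH 2.1, after each analyte. Curves were double-referenced with buffer injections.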

[7] = molecular target: T7, PILRA Fc (soluble human PILRA) (human, UniProt Q9UKJ1 20-197, limits assumed); test: flow cytometry; PILRA Fc binding to human CD3+ T cells with antibody, relative to PILRA Fc alone
T7 construct: also called soluble PILRA; not shown: Fc part, detected with anti-human IgG
T7 sequence (Q9UKJ1 20-197 limits assumed): as above
Protocol: (§2) The ability of conditioned media samples containing antibodies to inhibit the binding of PILRA Fc to human CD3+ T cells was assessed. Briefly, conditioned media samples containing antibodies were incubated with 1.25 ug/ml PILRA Fc for 30 min at 4° C. and then added to human T cells. After 30 minutes incubation at 4° C., cells were washed, and bound PILRA Fc was detected with anti-human IgG Alexa 647. Cells were analyzed by flow cytometry on FACS Canto II, and for all cell lines, the amount of PILRA Fc binding (MIFI) and the percentage of PILRA Fc binding in the presence of conditioned media relative to PILRA Fc binding alone was calculated. Several antibodies inhibited binding of PILRA Fc to human T cells, and a few antibodies enhanced PILRA-Fc binding to T cells. Antibodies that show enhancement in this assay may block cis inhibition to promote trans interactions or may allosterically activate to enhance trans interactions without blocking cis.

[8] = molecular target: T1, human PILRA, G78 variant, ectopically …; test: flow cytometry; NPDC1-mIgGa binding to 293 cells expressing human PILRA G78 with antibody, relative to NPDC1 Fc alone
Protocol: Conditioned media samples containing antibodies (10 ug/ml) were assessed for modulating the binding of Neural Proliferation Differentiation and Control Protein 1 (NPDC1) Fc to 293 cells ectopically expressing human PILRA. Briefly, conditioned media samples containing antibodies were incubated with 293 cells expressing human PILRA for 30 minutes at 4° C., and then 5 μg/ml NPDC1 Fc was added to this mixture. Where the antibodies were generated from phage panning, a NPDC1-hIgG1 ligand was used. Where the antibodies were generated from hybridomas, a NPDC1-mIgGa ligand was used. After 30 minutes incubation at 4° C., cells were washed and cell-bound NPDC1 Fc was detected with anti-human or mouse IgG Alexa 647. Cells were analyzed by flow cytometry on FACS Canto II, and for all cell lines, the percentage of NPDC1 Fc binding in the presence of conditioned media relative to NPDC1 Fc binding alone was calculated. Several antibodies decreased binding of NPDC1 to human PILRA, and a few antibodies enhanced ligand binding to human PILRA. Antibodies that show enhancement in this assay may block cis inhibition to promote trans interactions or may allosterically activate to enhance trans interactions without blocking cis.

[9] = molecular target: human PILRA on the surface of primary human macrophages or monocytes (human, UniProt Q9UKJ1 20-303); test: cell-based or functional assay
human PILRA on the surface of primary human macrophages or monocytes, sequence (Q9UKJ1 20-303): as the sequence (Q9UKJ1 other isoform, or with tags, fused parts or gaps mutant) above, with G59R counted along it

[10] = molecular target: T1, human PILRA, G78 variant, ectopically …; test: flow cytometry, 293 cells expressing target
Protocol: as §1

[11] = molecular target: T2, human PILRB, ectopically expressed on …; test: flow cytometry, 293 cells expressing target
Protocol: as §1

[12] = molecular target: T3, cynomolgus PILRA, ectopically expressed …; test: flow cytometry, 293 cells expressing target
Protocol: as §1

[13] = molecular target: T4, murine PILRA, ectopically expressed on …; test: flow cytometry, 293 cells expressing target
Protocol: as §1

[14] = molecular target: T5, murine PILRB, ectopically expressed on …; test: flow cytometry, 293 cells expressing target
Protocol: as §1

[15] = molecular target: T7, PILRA Fc (soluble human PILRA); test: flow cytometry; blocking of PILRA Fc binding to human CD3+ T cells (Donor 1019)
Protocol: as §2

MFIr [1] | MFIr [2] | MFIr [3] | MFIr [4] | MFIr [5] | Kd [6] | koff [6] | kon [6] | t½ [6] | % Binding [7] | % Binding [8] | hPILRA downregulation EC50 [9] | EC50 [10] | binding result [11] | binding result [12] | binding result [13] | binding result [14] | IC50 [15] | Binder
102 | 1.1 | 2.7 | 0.9 | 0.8 | 2.2 nM | 0.0038 s⁻¹ | 1.7e+06 M⁻¹ s⁻¹ | 3.1 min | 66.2% | 177% |  |  |  |  |  |  |  | B1
 |  |  |  |  |  |  |  |  |  |  | 0.009 µg/mL |  |  |  |  |  |  | B2
202 | 1.2 | 0.3 | 0.3 | 0.3 |  |  |  |  | 8.1% | 35.9% |  |  |  |  |  |  |  | B3
 |  |  |  |  | 65.6 nM | 0.0012 s⁻¹ | 18000 M⁻¹ s⁻¹ | 9.6 min |  |  |  | 31 µg/mL | no binding | no binding | no binding | no binding | 2.2 µg/mL | B4
 |  |  |  |  |  |  |  |  |  |  | 0.006 µg/mL |  |  |  |  |  |  | B5
 |  |  |  |  |  |  |  |  |  |  | 0.48 µg/mL |  |  |  |  |  |  | B6
36.1 | 1.1 | 0.8 | 1 | 0.8 | 10.5 nM | 0.0036 s⁻¹ | 340000 M⁻¹ s⁻¹ | 3.3 min | 82% | 110% |  |  |  |  |  |  |  | B7
44.2 | 1.2 | 0.8 | 0.9 | 0.8 |  |  |  |  | 33.2% | 69.7% |  |  |  |  |  |  |  | B8
 |  |  |  |  | 36.8 nM | 0.0014 s⁻¹ | 37000 M⁻¹ s⁻¹ | 8.5 min |  |  |  | 1 µg/mL | no binding | no binding | no binding | no binding | 4.56 µg/mL | B9
113 | 1.2 | 70.5 | 0.8 | 0.8 | 45 nM | 0.0037 s⁻¹ | 81000 M⁻¹ s⁻¹ | 3.2 min | 60% | 158% |  |  |  |  |  |  |  | B10
 |  |  |  |  |  |  |  |  |  |  | 0.4 µg/mL |  |  |  |  |  |  | B11

Source: patent US20240425587A1 (Alector, published 2024)
